Measurements as given in paper doi:10.1101/2020.12.08.416701.

What was measured:
TβRI ectodomain (human) [1] = target: TβRI ectodomain (human) (UniProt P36897); experiment: ITC
TβRI ectodomain (human) [2] = target: TβRI ectodomain (human) (UniProt P36897); experiment: SEC-MALS
[3] = target: biotinylated avi-tagged TβRI (human) (UniProt P36897); experiment: SPR
TβRII ectodomain (human) = TβRII ectodomain (human) (UniProt P37173); experiment: ITC
[4] = target: biotinylated avi-tagged TβRII (human) (UniProt P37173); experiment: SPR
Chain of biotinylated avi-tagged TβRII (human) (P37173 23-567): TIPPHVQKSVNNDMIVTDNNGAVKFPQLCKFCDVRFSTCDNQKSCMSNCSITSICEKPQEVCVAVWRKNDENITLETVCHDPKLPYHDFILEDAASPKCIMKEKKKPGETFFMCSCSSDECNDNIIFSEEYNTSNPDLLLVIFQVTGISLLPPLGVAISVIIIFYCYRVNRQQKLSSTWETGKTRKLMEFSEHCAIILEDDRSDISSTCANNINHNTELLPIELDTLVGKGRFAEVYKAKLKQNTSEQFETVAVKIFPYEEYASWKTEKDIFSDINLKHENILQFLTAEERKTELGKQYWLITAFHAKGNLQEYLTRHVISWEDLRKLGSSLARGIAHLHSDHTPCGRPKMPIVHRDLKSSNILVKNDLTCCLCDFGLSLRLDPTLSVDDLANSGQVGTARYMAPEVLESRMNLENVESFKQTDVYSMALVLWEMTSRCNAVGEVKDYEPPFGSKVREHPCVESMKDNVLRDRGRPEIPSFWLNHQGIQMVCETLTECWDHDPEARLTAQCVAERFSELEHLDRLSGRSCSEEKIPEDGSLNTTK

Chain of TβRII ectodomain (human) (P37173 23-166): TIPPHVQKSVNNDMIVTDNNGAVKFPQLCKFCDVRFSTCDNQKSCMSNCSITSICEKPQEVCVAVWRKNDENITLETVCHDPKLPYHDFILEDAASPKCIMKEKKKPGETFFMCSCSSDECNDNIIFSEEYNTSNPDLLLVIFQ
Chain of biotinylated avi-tagged TβRI (human) (P36897 34-503): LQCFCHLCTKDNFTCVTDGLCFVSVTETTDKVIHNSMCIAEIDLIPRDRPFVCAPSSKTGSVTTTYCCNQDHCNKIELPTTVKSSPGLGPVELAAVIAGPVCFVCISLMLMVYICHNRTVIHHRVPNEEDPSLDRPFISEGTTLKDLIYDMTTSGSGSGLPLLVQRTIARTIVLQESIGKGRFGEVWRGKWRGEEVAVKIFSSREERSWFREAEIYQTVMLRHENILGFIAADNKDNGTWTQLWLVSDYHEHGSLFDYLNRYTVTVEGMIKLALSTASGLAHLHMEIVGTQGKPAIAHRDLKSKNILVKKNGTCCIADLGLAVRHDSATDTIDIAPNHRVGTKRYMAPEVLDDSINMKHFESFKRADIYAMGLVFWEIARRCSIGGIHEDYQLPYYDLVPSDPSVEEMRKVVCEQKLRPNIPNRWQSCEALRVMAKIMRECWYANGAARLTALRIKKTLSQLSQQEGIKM
Chain of TβRI ectodomain (human) (P36897 34-126): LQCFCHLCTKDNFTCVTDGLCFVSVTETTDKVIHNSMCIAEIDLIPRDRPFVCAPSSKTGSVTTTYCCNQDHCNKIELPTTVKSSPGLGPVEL
Chain of TGF-β3:TβRII binary complex (P37173 whole entry, looked up, one chain of several): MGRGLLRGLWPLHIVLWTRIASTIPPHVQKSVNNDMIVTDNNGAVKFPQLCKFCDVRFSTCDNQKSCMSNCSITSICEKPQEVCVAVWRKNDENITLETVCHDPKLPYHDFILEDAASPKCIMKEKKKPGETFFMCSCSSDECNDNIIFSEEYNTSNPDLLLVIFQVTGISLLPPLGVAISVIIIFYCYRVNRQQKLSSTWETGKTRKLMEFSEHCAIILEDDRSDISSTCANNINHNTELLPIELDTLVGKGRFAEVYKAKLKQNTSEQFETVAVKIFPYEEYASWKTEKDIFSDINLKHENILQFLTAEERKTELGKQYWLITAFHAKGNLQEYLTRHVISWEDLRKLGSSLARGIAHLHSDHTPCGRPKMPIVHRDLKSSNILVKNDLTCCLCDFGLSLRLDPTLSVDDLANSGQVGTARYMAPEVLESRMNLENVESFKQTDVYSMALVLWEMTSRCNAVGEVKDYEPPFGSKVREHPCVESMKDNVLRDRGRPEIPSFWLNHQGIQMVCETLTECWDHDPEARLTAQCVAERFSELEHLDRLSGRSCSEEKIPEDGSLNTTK

| Substance | Kd (TβRI ectodomain (human) [1]) | dH (TβRI ectodomain (human) [1]) | stoichiometry N (TβRI ectodomain (human) [2]) | Kd [3] | Kd (TβRII ectodomain (human)) | dH (TβRII ectodomain (human)) | Kd [4] |
| --- | --- | --- | --- | --- | --- | --- | --- |
| TGF-β3:TβRII binary complex (from UniProt P37173 23-166) | 61.7 nM | -4.21 kcal/mol | – | – | – | – | – |
| TGM domain 2 (domain or fragment) | 1470 nM | -17.7 kcal/mol | 1 | 309 nM | – | – | – |
| TGM domain 3 (domain or fragment) | – | – | – | – | 1150 nM | -10.7 kcal/mol | 910 nM |
| TGM domains 1 and 2 (domain or fragment) | 25.3 nM | -18.7 kcal/mol | – | 24100 nM | – | – | – |
| full-length TGM (TGF-β mimic of Heligmosomoides polygyrus) (natural protein) | 52.1 nM | -16.7 kcal/mol | – | 13.1 nM | 550 nM | -7.14 kcal/mol | 610 nM |
